Test results published in US20240270821A1, “GIP/GLP1/GCG TRI-RECEPTOR AGONISTS AND USES THEREOF” (priority 2023, published 2024).
Substitutions are numbered along the chain they refer to.

T1: human GIP receptor (human) (UniProt P48546)
T1 sequence (looked up): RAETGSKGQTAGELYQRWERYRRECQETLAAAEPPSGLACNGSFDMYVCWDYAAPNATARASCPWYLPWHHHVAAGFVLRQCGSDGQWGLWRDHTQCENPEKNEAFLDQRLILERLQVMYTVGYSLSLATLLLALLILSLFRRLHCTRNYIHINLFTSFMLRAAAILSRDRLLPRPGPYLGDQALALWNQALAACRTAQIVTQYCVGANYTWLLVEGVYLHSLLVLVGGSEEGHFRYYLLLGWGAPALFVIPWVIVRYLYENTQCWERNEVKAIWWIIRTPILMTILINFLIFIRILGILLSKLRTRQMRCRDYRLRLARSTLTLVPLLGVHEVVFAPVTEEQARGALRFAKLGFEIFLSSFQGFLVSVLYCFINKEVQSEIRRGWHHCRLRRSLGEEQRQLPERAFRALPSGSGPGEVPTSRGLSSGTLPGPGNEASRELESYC

B1: Example 1069 (peptide)
chain: YXQGTFTSDXSXXLDXKAQXAFIEYLLAGGPSSGAPPPSGSEE
modifications: non-natural residues; acylated Lys; C-terminal amide; synthetic construct; SITE 2: note = 2-Aminoisobutyric Acid; SITE 10: note = 3-(4-Pyridyl)-L-alanine; SITE 12: note = L-ornithine; SITE 13: note = alpha-methyl-leucine; SITE 16: note = L-ornithine; SITE 17: note = Lysine is chemically modified through conjugation of the epsilon-amino group of the Lys
B2: Example 1070 (peptide)
chain: B1 chain with X12Q, Y25X, L27I, A28E
modifications: Aib, 4Pal, αMeL, Orn, Me4Pal, αMeY; acylated Lys; C-terminal amide; synthetic construct; SITE 2: note = 2-Aminoisobutyric Acid; SITE 10: note = 3-(4-Pyridyl)-L-alanine; SITE 13: note = alpha-methyl-leucine; SITE 16: note = L-ornithine; SITE 17: note = Lysine is chemically modified through conjugation of the epsilon-amino group of the Lysine side chain with D-Glutami
B3: Example 1071 (peptide)
chain: YXQGTFTSDXSQXLDXKAQXAFIEXLIEGGPSSGAPPPSGSEEE
modifications: acylated Lys e-γGlu-C18 diacid; non-natural residues; C-terminal amide; synthetic construct; SITE 2: note = 2-Aminoisobutyric Acid; SITE 10: note = 3-(4-Pyridyl)-L-alanine; SITE 13: note = alpha-methyl-leucine; SITE 16: note = L-ornithine; SITE 17: note = Lysine is chemically modified through conjugation of the epsilon-amino group of the Lysine side chain with D-Glutami
B4: Example 1072 (peptide)
chain: B1 chain with X12Q, E24Q, Y25X, L27I, A28E
modifications: Aib, 4Pal, αMeL, Orn, Me4Pal, αMeY; acylated Lys; C-terminal amide; synthetic construct; SITE 2: note = 2-Aminoisobutyric Acid; SITE 10: note = 3-(4-Pyridyl)-L-alanine; SITE 13: note = alpha-methyl-leucine; SITE 16: note = L-ornithine; SITE 17: note = Lysine is chemically modified through conjugation of the epsilon-amino group of the Lysine side chain with D-Glutami
B5: Example 1073 (peptide)
chain: B3 chain with E24Q
modifications: non-natural residues, acylated Lys (γGlu-C18 diacid), C-terminal amide; synthetic construct; SITE 2: note = 2-Aminoisobutyric Acid; SITE 10: note = 3-(4-Pyridyl)-L-alanine; SITE 13: note = alpha-methyl-leucine; SITE 16: note = L-ornithine; SITE 17: note = Lysine is chemically modified through conjugation of the epsilon-amino group of the Lysine side chain with D-Glutami
B6: Example 1074 (peptide)
chain: B1 chain with X12Q, Y25X, L27I
modifications: non-natural residues; C18 diacid-γ-Glu acyl on Lys; C-terminal amide; synthetic construct; SITE 2: note = 2-Aminoisobutyric Acid; SITE 10: note = 3-(4-Pyridyl)-L-alanine; SITE 13: note = alpha-methyl-leucine; SITE 16: note = L-ornithine; SITE 17: note = Lysine is chemically modified through conjugation of the epsilon-amino group of the Lysine side chain with D-Glutami
B7: Example 103 (peptide)
chain: YXQGTFTSDFSXXLDKKAQXAFIEWLLAGGPSSGEPPPSGE
modifications: synthetic construct; SITE 2: note = 2-Aminoisobutyric Acid; SITE 12: note = L-ornithine; SITE 13: note = alpha-methyl-leucine; SITE 17: note = Lysine is chemically modified through conjugation of the epsilon-amino group of the Lysine side chain with (2-[2-(2-Amino-ethoxy)-ethoxy]-acetyl)-(gamma-Glu)
B8: Example 1076 (peptide)
chain: B3 chain with E24Q
modifications: non-natural residues (Aib, 4Pal, Orn, Me4Pal, αMeY); lipidated K; amide; synthetic construct; SITE 2: note = 2-Aminoisobutyric Acid; SITE 10: note = 3-(4-Pyridyl)-L-alanine; SITE 13: note = alpha-methyl-leucine; SITE 16: note = L-ornithine; SITE 17: note = Lysine is chemically modified through conjugation of the epsilon-amino group of the Lysine side chain with D-Glutami
B9: Example 1077 (peptide)
chain: B3 chain with E24Q
modifications: Glu-γGlu-C18 diacid on Lys; non-natural residues; amide; synthetic construct; SITE 2: note = 2-Aminoisobutyric Acid; SITE 10: note = 3-(4-Pyridyl)-L-alanine; SITE 13: note = alpha-methyl-leucine; SITE 16: note = L-ornithine; SITE 17: note = Lysine is chemically modified through conjugation of the epsilon-amino group of the Lysine side chain with (Glu)-(ga)
B10: Example 1081 (peptide)
chain: B3 chain with A21Q, E28A
modifications: Aib, 4Pal, Orn, Me4Pal, alpha-methyl-Tyr, lipidated Lys, amide; synthetic construct; SITE 2: note = 2-Aminoisobutyric Acid; SITE 10: note = 3-(4-Pyridyl)-L-alanine; SITE 13: note = alpha-methyl-leucine; SITE 16: note = L-ornithine; SITE 17: note = Lysine is chemically modified through conjugation of the epsilon-amino group of the Lysine side chain with D-Glutami
B11: Example 1082 (peptide)
chain: B3 chain with I27L, E28A
modifications: Lys acylated γGlu-C18 diacid; non-natural residues; C-amide; synthetic construct; SITE 2: note = 2-Aminoisobutyric Acid; SITE 10: note = 3-(4-Pyridyl)-L-alanine; SITE 13: note = alpha-methyl-leucine; SITE 16: note = L-ornithine; SITE 17: note = Lysine is chemically modified through conjugation of the epsilon-amino group of the Lysine side chain with D-Glutami
B12: Example 1083 (peptide)
chain: B3 chain with E24Q, I27L
modifications: Aib, 4Pal, Orn, Me4Pal, αMeY; acylated lysine; amide; synthetic construct; SITE 2: note = 2-Aminoisobutyric Acid; SITE 10: note = 3-(4-Pyridyl)-L-alanine; SITE 13: note = alpha-methyl-leucine; SITE 16: note = L-ornithine; SITE 17: note = Lysine is chemically modified through conjugation of the epsilon-amino group of the Lysine side chain with D-Glutami
B13: Example 1084 (peptide)
chain: B3 chain with A21Q, I27L, E28A
modifications: not fully specified; Lys acylated γGlu-C18 diacid; non-natural residues; C-terminal amide; synthetic construct; SITE 2: note = 2-Aminoisobutyric Acid; SITE 10: note = 3-(4-Pyridyl)-L-alanine; SITE 13: note = alpha-methyl-leucine; SITE 16: note = L-ornithine; SITE 17: note = Lysine is chemically modified through conjugation of the epsilon-amino group of the Lysine side chain with D-Glutami
B14: Example 1085 (peptide)
chain: B7 chain with F10X, X12Q, W25Y, L27I, E35A
modifications: non-natural residues; lipidated Lys; C-terminal amide; synthetic construct; SITE 2: note = 2-Aminoisobutyric Acid; SITE 10: note = 3-(4-Pyridyl)-L-alanine; SITE 13: note = alpha-methyl-leucine; SITE 17: note = Lysine is chemically modified through conjugation of the epsilon-amino group of the Lysine side chain with D-Glutamic acid-(gamma-Glu)-CO-(CH2)16
B15: Example 104 (peptide)
chain: B7 chain with A28E, P31X, E35A
modifications: synthetic construct; SITE 2: note = 2-Aminoisobutyric Acid; SITE 12: note = L-ornithine; SITE 13: note = alpha-methyl-leucine; SITE 17: note = Lysine is chemically modified through conjugation of the epsilon-amino group of the Lysine side chain with (2-[2-(2-Amino-ethoxy)-ethoxy]-acetyl)-(gamma-Glu)

Target: hGLP-1R (Homo sapiens, UniProt P43220)
Sequence (P43220 24-463): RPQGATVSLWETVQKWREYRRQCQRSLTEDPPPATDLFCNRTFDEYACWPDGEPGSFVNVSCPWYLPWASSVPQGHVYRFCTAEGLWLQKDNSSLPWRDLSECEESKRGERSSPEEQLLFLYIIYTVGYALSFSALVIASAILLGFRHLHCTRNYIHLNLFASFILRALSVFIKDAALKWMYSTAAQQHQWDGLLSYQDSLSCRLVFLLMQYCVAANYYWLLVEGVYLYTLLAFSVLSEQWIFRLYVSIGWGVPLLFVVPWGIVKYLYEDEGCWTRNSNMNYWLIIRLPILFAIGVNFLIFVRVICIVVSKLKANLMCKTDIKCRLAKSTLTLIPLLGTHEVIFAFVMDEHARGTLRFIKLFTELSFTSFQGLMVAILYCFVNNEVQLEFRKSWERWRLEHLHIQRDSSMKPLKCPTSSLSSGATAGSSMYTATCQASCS
Assay: cell-based or functional assay

Compared with B1, B2 is 5.8-fold lower in Relative cAMP EC50: 8.87 nM for the first, 1.54 nM for the second.

Compared with B3, B4 is 2.3-fold lower in Relative cAMP EC50: 2.06 nM for the first, 0.889 nM for the second.

B5 and B6 are within 1.5-fold of each other in Relative cAMP EC50: 1.09 nM for the first, 0.794 nM for the second.

Compared with B7, B8 is 2.2-fold lower in Relative cAMP EC50: 3.27 nM for the first, 1.47 nM for the second.

B9 and B10 are within 1.5-fold of each other in Relative cAMP EC50: 1.48 nM for the first, 1.29 nM for the second.

Compared with B11, B12 is 1.9-fold higher in Relative cAMP EC50: 4.13 nM for the first, 7.76 nM for the second.

Compared with B13, B14 is 8-fold lower in Relative cAMP EC50: 10.3 nM for the first, 1.28 nM for the second.

For B15, the Relative cAMP EC50 was 3.39 nM.

Compared with B1, B2 is 4-fold lower in cAMP Rel EC50 (1% HSA): 1290 nM for the first, 321 nM for the second.

First: B3
Second: B4
The cAMP Rel EC50 (1% HSA) of the first is 4.5-fold higher: 425 nM for the first, 95.1 nM for the second.

B5 and B6 are within 1.5-fold of each other in cAMP Rel EC50 (1% HSA): 114 nM for the first, 101 nM for the second.

Compared with B8, B9 is 2.2-fold higher in cAMP Rel EC50 (1% HSA): 187 nM for the first, 408 nM for the second.

Compared with B10, B11 is 4.5-fold higher in cAMP Rel EC50 (1% HSA): 151 nM for the first, 677 nM for the second.

B12 and B13 are within 1.5-fold of each other in cAMP Rel EC50 (1% HSA): 547 nM for the first, 761 nM for the second.

B14 was tested, and the cAMP Rel EC50 (1% HSA) was 188 nM.

B7 and B15 are within 1.5-fold of each other in cAMP Rel EC50, nM (in the presence of 1% HSA): 482 nM for the first, 698 nM for the second.

Target: T1, human GIP receptor (human)
Assay: cell-based or functional assay

First: B1
Second: B2
The Relative cAMP EC50 of the first is 2.5-fold higher: 0.417 nM for the first, 0.167 nM for the second.

Compared with B3, B4 is 1.7-fold lower in Relative cAMP EC50: 0.261 nM for the first, 0.157 nM for the second.

Going from B5 to B6, the Relative cAMP EC50 falls from 0.201 nM to 0.0745 nM (2.7-fold).

B7 and B8 are within 1.5-fold of each other in Relative cAMP EC50: 0.2 nM for the first, 0.174 nM for the second.

Compared with B9, B10 is 2.2-fold lower in Relative cAMP EC50: 0.23 nM for the first, 0.105 nM for the second.

Going from B11 to B12, the Relative cAMP EC50 rises from 0.099 nM to 0.328 nM (3.3-fold).

B13 and B14 are within 1.5-fold of each other in Relative cAMP EC50: 0.0975 nM for the first, 0.0827 nM for the second.

With B15 the Relative cAMP EC50 was 0.251 nM.

B1 and B2 are within 1.5-fold of each other in cAMP Rel EC50 (1% HSA): 39.5 nM for the first, 27.3 nM for the second.

Compared with B3, B4 is 4-fold lower in cAMP Rel EC50 (1% HSA): 40.2 nM for the first, 9.94 nM for the second.

First: B5
Second: B6
The cAMP Rel EC50 (1% HSA) of the first is 1.8-fold higher: 15.7 nM for the first, 8.49 nM for the second.

B8 and B9 are within 1.5-fold of each other in cAMP Rel EC50 (1% HSA): 20.2 nM for the first, 27.8 nM for the second.

B10 and B11 are within 1.5-fold of each other in cAMP Rel EC50 (1% HSA): 8.44 nM for the first, 12.3 nM for the second.

B12 and B13 are within 1.5-fold of each other in cAMP Rel EC50 (1% HSA): 20.5 nM for the first, 17.2 nM for the second.

Binder B14 has a cAMP Rel EC50 (1% HSA) of 9.84 nM.

Going from B7 to B15, the cAMP Rel EC50, nM (in the presence of 1% HSA) rises from 35.1 nM to 97.5 nM (2.8-fold).

Target: human glucagon receptor (human) (UniProt P47871)
Sequence (P47871 26-477): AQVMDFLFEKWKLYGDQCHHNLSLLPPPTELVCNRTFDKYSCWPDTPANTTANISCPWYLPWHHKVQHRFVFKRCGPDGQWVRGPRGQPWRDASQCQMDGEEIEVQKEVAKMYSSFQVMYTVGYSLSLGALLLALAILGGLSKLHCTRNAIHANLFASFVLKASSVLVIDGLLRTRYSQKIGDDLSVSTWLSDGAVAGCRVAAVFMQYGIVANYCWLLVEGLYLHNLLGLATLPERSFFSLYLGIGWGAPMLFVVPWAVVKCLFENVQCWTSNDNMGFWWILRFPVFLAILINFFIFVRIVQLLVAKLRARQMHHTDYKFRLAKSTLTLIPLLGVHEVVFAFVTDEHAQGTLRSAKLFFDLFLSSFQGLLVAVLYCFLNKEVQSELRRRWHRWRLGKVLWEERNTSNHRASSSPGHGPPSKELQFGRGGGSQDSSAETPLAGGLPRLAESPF
Assay: cell-based or functional assay

B1 and B2 are within 1.5-fold of each other in Relative cAMP EC50: 21.2 nM for the first, 20.2 nM for the second.

Going from B3 to B4, the Relative cAMP EC50 falls from 23.5 nM to 10.5 nM (2.2-fold).

Compared with B5, B6 is 1.9-fold higher in Relative cAMP EC50: 12.3 nM for the first, 22.8 nM for the second.

First: B7
Second: B8
The Relative cAMP EC50 of the first is 5.6-fold lower: 10.5 nM for the first, 59 nM for the second.

B9 and B10 are within 1.5-fold of each other in Relative cAMP EC50: 18.8 nM for the first, 19.7 nM for the second.

B11 and B12 are within 1.5-fold of each other in Relative cAMP EC50: 12.3 nM for the first, 15 nM for the second.

B13 and B14 are within 1.5-fold of each other in Relative cAMP EC50: 11.5 nM for the first, 11.6 nM for the second.

B15 showed a Relative cAMP EC50 of 7.58 nM.

B1 and B2 are within 1.5-fold of each other in cAMP Rel EC50 (1% HSA): 2160 nM for the first, 1940 nM for the second.

Compared with B3, B4 is 3.3-fold lower in cAMP Rel EC50 (1% HSA): 2990 nM for the first, 914 nM for the second.

B5 and B6 are within 1.5-fold of each other in cAMP Rel EC50 (1% HSA): 1490 nM for the first, 1990 nM for the second.

Compared with B8, B9 is 1.9-fold higher in cAMP Rel EC50 (1% HSA): 1650 nM for the first, 3160 nM for the second.

B10 and B11 are within 1.5-fold of each other in cAMP Rel EC50 (1% HSA): 2130 nM for the first, 1530 nM for the second.

B12 and B13 are within 1.5-fold of each other in cAMP Rel EC50 (1% HSA): 1030 nM for the first, 1390 nM for the second.

Work on B14 yielded a cAMP Rel EC50 (1% HSA) of 1370 nM.

First: B7
Second: B15
The cAMP Rel EC50, nM (in the presence of 1% HSA) of the first is 2.1-fold higher: 2590 nM for the first, 1260 nM for the second.
